Results from patent publication US20240392004A1 (IMMUNOWAKE, published 2024).
Numbering of substitutions follows the chain as printed. In names and notes the source's numbering stands. Values belong to the binder of their own block, whether it stands above or below them.

Key:
human PD-1 [1] = molecular target: T1, human PD-1 (human, UniProt Q15116 25-167, limits assumed); experiment: rounded restatement of Tables 14 and 15
T1 construct: also called hPD-1

mouse PD-1 [2] = molecular target: T2, mouse PD-1 (mouse, UniProt Q02242 25-167, limits assumed); experiment: rounded restatement of Tables 14 and 15
T2 construct: also called mPD-1
T2 sequence (looked up): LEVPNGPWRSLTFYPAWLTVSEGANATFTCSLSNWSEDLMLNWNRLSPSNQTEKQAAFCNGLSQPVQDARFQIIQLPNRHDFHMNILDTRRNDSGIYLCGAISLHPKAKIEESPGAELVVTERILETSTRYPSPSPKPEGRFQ

mouse PD-1 [3] = molecular target: T2, mouse PD-1; experiment: same value as Table 15 (measured in PD-L2-Fc format)
[4] = molecular target: T3, human IL-2 receptor (IL-2Rα, IL-2Rβ, IL-2Rγ) (human, UniProt P01589 22-272; P14784 27-551; P31785 23-369); experiment: cell-based or functional assay
T3 sequence (looked up) 1: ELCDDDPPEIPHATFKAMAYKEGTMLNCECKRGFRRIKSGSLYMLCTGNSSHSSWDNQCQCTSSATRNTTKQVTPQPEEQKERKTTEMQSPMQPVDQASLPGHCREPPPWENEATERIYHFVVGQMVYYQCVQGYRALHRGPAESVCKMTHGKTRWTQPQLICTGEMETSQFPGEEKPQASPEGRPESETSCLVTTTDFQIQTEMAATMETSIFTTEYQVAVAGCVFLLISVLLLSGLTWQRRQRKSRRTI
T3 sequence (looked up) 2: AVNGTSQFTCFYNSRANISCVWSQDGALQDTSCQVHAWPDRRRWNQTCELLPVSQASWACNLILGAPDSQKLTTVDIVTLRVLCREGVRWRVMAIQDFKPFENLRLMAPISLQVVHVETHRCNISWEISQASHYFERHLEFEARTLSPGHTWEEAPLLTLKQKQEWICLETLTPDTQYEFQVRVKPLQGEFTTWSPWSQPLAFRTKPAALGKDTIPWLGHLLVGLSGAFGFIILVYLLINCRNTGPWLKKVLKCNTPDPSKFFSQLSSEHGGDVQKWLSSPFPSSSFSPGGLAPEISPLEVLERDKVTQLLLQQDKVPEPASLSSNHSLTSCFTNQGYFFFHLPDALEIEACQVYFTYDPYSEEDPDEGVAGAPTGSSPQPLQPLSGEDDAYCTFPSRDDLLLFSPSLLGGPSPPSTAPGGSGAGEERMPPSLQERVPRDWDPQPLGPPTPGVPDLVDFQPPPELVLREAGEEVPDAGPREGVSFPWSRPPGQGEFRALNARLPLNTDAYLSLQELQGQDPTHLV
T3 sequence (looked up) 3: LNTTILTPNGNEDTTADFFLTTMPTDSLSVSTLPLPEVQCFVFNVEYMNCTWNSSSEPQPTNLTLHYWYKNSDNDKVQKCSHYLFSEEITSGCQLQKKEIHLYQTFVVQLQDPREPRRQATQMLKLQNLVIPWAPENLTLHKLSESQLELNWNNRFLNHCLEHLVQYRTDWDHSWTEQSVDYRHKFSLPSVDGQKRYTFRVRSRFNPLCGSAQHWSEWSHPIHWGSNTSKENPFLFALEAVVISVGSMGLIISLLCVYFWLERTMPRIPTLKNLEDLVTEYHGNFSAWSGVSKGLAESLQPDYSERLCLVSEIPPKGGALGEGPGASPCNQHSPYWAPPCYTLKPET

human PD-1 [5] = molecular target: T1, human PD-1; experiment: PD-L2-Fc format, method not stated
mouse PD-1 [6] = molecular target: T2, mouse PD-1; experiment: PD-L2-Fc format, method not stated

T1 sequence (Q15116 25-167 limits assumed): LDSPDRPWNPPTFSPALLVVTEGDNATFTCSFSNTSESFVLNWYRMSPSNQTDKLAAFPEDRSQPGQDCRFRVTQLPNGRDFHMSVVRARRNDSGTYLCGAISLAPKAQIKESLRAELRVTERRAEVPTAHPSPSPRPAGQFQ

- Kd (human PD-1 [1]): ~100 nM
- Kd (mouse PD-1 [2]): ~100 nM
- Kd (mouse PD-1 [3]): 230 nM
B1: IL-12(E59A/F60A)/PD-L2(S58V)-Fc (IL-12 at hinge) (Fc fusion)
chain 1: LFTVTVPKELYIIEHGSNVTLECNFDTGSHVNLGAITAVLQKVENDTSPHRERATLLEEQLPLGKASFHIPQVQVRDEGQYQCIIIYGVAWDYKYLTLKVKASYRKINTHILKVPETDEVELTCQATGYPLAEVSWPNVSVPANTSHSRTPEGLYQVTSVLRLKPPPGRNFSCVFWNTHVRELTLASIDLQSQMEPRTHPTGGGGSGGGIWELKKDVYVVELDWYPDAPGEMVVLTCDTPEEDGITWTLDQSSEVLGSGKTLTIQVKAAGDAGQYTCHKGGEVLSHSLLLLHKKEDGIWSTDILKDQKEPKNKTFLRCEAKNYSGRFTCWWLTTISTDLTFSVKSSRGSSDPQGVTCGAATLSAERVRGDNKEYEYSVECQEDSACPAAEESLPIEVMVDAVHKLKYENYTSSFFIRDIIKPDPPKNLQLKPLKNSRQVEVSWEYPDTWSTPHSYFSLTFCVQVQGKSKREKKDRVFTDKTSATVICRKNASISVRAQDRYYSSSWSEWASVPCSGGGGSGGGSGGGGSRNLPVATPDPGMFPCLHHSQNLLRAVSNMLQKARQTLEFYPCTSEEIDHEDITKDKTSTVEACLPLELTKNESCLNSRETSFITNGSCLASRKTSFMMALCLSSIYEDLKMYQVEFKTMNAKLLMDPKRQIFLDQNMLAVIDELMQALNFNSETVPQKSSLEEPDFYKTKIKLCILLHAFRIRAVTIDRVMSYLNASGGGGSGGGDKTHTCPPCPAPEDEGGPSVFLFPPKPKDTLMISRTPEVTCVVVDVSHEDPEVKFNWYVDGVEVHNAKTKPREEQYNSTYRVVSVLTVLHQDWLNGKEYKCKVSNKALPAPIEKTISKAKGQPREPQVYVYPPSREEMTKNQVSLTCLVKGFYPSDIAVEWESNGQPENNYKTTPPVLDEDGSFALVSKLTVDKSRWQQGNVFSCSVMHEALHNHYTQKSLSLSPGK
chain 2: LFTVTVPKELYIIEHGSNVTLECNFDTGSHVNLGAITAVLQKVENDTSPHRERATLLEEQLPLGKASFHIPQVQVRDEGQYQCIIIYGVAWDYKYLTLKVKASYRKINTHILKVPETDEVELTCQATGYPLAEVSWPNVSVPANTSHSRTPEGLYQVTSVLRLKPPPGRNFSCVFWNTHVRELTLASIDLQSQMEPRTHPTGGGGSGGGDKTHTCPPCPAPEKKGGPSVFLFPPKPKDTLMISRTPEVTCVVVDVSHEDPEVKFNWYVDGVEVHNAKTKPREEQYNSTYRVVSVLTVLHQDWLNGKEYKCKVSNKALPAPIEKTISKAKGQPREPQVYVLPPSREEMTKNQVSLLCLVKGFYPSDIAVEWESNGQPENRYMTWPPVLDSDGSFFLYSKLTVDKSRWQQGNVFSCSVMHEALHNHYTQKSLSLSPGK
notes: also called IL-12(E59A/F60A)/PD-L2(mut2)-Fc

- Percent IL-2 signal transduction (HEK-IL-2 reporter assay) [4]: 0%
B2: anti-PD-1 antibody nivolumab (Opdivo) (antibody, human IgG4 S228P, kappa, V domains shown)
VH: QVQLVESGGGVVQPGRSLRLDCKASGITFSNSGMHWVRQAPGKGLEWVAVIWYDGSKRYYADSVKGRFTISRDNSKNTLFLQMNSLRAEDTAVYYCATNDDYWGQGTLVTVSS
VL: EIVLTQSPATLSLSPGERATLSCRASQSVSSYLAWYQQKPGQAPRLLIYDASNRATGIPARFSGSGSGTDFTLTISSLEPEDFAVYYCQQSSNWPRTFGQGTKVEIKR

- Kd (human PD-1 [5]): 1200 nM
- Kd (mouse PD-1 [6]): 980 nM
B3: PD-L2(wt)-Fc (heterodimer) (Fc fusion)
chain 1: LFTVTVPKELYIIEHGSNVTLECNFDTGSHVNLGAITASLQKVENDTSPHRERATLLEEQLPLGKASFHIPQVQVRDEGQYQCIIIYGVAWDYKYLTLKVKASYRKINTHILKVPETDEVELTCQATGYPLAEVSWPNVSVPANTSHSRTPEGLYQVTSVLRLKPPPGRNFSCVFWNTHVRELTLASIDLQSQMEPRTHPTDKTHTCPPCPAPEDEGGPSVFLFPPKPKDTLMISRTPEVTCVVVDVSHEDPEVKFNWYVDGVEVHNAKTKPREEQYNSTYRVVSVLTVLHQDWLNGKEYKCKVSNKALPAPIEKTISKAKGQPREPQVYVYPPSREEMTKNQVSLTCLVKGFYPSDIAVEWESNGQPENNYKTTPPVLDEDGSFALVSKLTVDKSRWQQGNVFSCSVMHEALHNHYTQKSLSLSPGK
chain 2: B3 chain 1 with D215K, E216K, Y332L, T347L, N371R, K373M, T375W, E381S, A386F, V388Y

- Kd (mouse PD-1 [3]): 980 nM
B4: IL-12(E59A/F60A)/PD-L2(WT)-Fc (Fc fusion)
chain 1: LFTVTVPKELYIIEHGSNVTLECNFDTGSHVNLGAITASLQKVENDTSPHRERATLLEEQLPLGKASFHIPQVQVRDEGQYQCIIIYGVAWDYKYLTLKVKASYRKINTHILKVPETDEVELTCQATGYPLAEVSWPNVSVPANTSHSRTPEGLYQVTSVLRLKPPPGRNFSCVFWNTHVRELTLASIDLQSQMEPRTHPTGSGIWELKKDVYVVELDWYPDAPGEMVVLTCDTPEEDGITWTLDQSSEVLGSGKTLTIQVKAAGDAGQYTCHKGGEVLSHSLLLLHKKEDGIWSTDILKDQKEPKNKTFLRCEAKNYSGRFTCWWLTTISTDLTFSVKSSRGSSDPQGVTCGAATLSAERVRGDNKEYEYSVECQEDSACPAAEESLPIEVMVDAVHKLKYENYTSSFFIRDIIKPDPPKNLQLKPLKNSRQVEVSWEYPDTWSTPHSYFSLTFCVQVQGKSKREKKDRVFTDKTSATVICRKNASISVRAQDRYYSSSWSEWASVPCSGGGGSGGGGSGGGGSGGGGSGRNLPVATPDPGMFPCLHHSQNLLRAVSNMLQKARQTLEFYPCTSEEIDHEDITKDKTSTVEACLPLELTKNESCLNSRETSFITNGSCLASRKTSFMMALCLSSIYEDLKMYQVEFKTMNAKLLMDPKRQIFLDQNMLAVIDELMQALNFNSETVPQKSSLEEPDFYKTKIKLCILLHAFRIRAVTIDRVMSYLNASDKTHTCPPCPAPEDEGGPSVFLFPPKPKDTLMISRTPEVTCVVVDVSHEDPEVKFNWYVDGVEVHNAKTKPREEQYNSTYRVVSVLTVLHQDWLNGKEYKCKVSNKALPAPIEKTISKAKGQPREPQVYVYPPSREEMTKNQVSLTCLVKGFYPSDIAVEWESNGQPENNYKTTPPVLDEDGSFALVSKLTVDKSRWQQGNVFSCSVMHEALHNHYTQKSLSLSPGK
chain 2: LFTVTVPKELYIIEHGSNVTLECNFDTGSHVNLGAITASLQKVENDTSPHRERATLLEEQLPLGKASFHIPQVQVRDEGQYQCIIIYGVAWDYKYLTLKVKASYRKINTHILKVPETDEVELTCQATGYPLAEVSWPNVSVPANTSHSRTPEGLYQVTSVLRLKPPPGRNFSCVFWNTHVRELTLASIDLQSQMEPRTHPTGSGDKTHTCPPCPAPEKKGGPSVFLFPPKPKDTLMISRTPEVTCVVVDVSHEDPEVKFNWYVDGVEVHNAKTKPREEQYNSTYRVVSVLTVLHQDWLNGKEYKCKVSNKALPAPIEKTISKAKGQPREPQVYVLPPSREEMTKNQVSLLCLVKGFYPSDIAVEWESNGQPENRYMTWPPVLDSDGSFFLYSKLTVDKSRWQQGNVFSCSVMHEALHNHYTQKSLSLSPGK
notes: also called IL-12(E59A/F60A)/PD-L2-Fc; construct #29
